Experiments:
MS2 coat protein [1] = experiment: apparent KD of MS2 coat protein, switch ON state; designed switch direction (-1 OFF switch, 1 ON switch): -1; higher = weaker reporter binding; details: FMN input: 0 or 200 uM; Eterna round: R93 (includes R88 designs)
In short: (§1)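 Normalised binding curves from single clusters were fitted, and the median fit for each design is given as apparent KD. The clusters held designed RNA switches transcribed on-chip from Illumina sequencing clusters. These were titrated with SNAP-549-labelled MS2 coat protein (twofold steps from 0.7 or 1.5 nM to 3 µM, 0.8–1.5 h to 10–20 min per step) in 100 mM Tris-HCl pH 7.5, 80 mM KCl, 4 mM MgCl2, without or with constant ligand.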

MS2 coat protein [2] = experiment: apparent KD of MS2 coat protein, switch OFF state (with FMN for OFF switches, without FMN for ON switches); designed switch direction (-1 OFF switch, 1 ON switch): -1; higher = weaker reporter binding; details: FMN input: 0 or 200 uM; Eterna round: R93 (includes R88 designs)
In short: as §1

Sequence	apparent KD of MS2 coat protein (MS2 coat protein [1]) [µM]	apparent KD of MS2 coat protein (MS2 coat protein [2]) [µM]
AACAUGUUAGGAUAUCUAAGAAAAGAAAAGAAAGAAAAGAAAGAGAAGGAACAUGAGGAUCACCCAUGUAAGAA [EteRNA is fun!]	0.0301	0.0221
AACAUGUUAGGAUAUUGAAGAAAAGAAAAGAAAGAAAAGAACAAGAAGGAACAUGAGGAUCACCCAUGUAAGAA [EteRNA is fun!]	0.025	0.0172
AACGAACAUGAGGAUCACCCAUGUCAGGAUAUGCGAAGAACGAUCGAACAAACGAUAAGCAGAAGGGACAGAGA [Amethyst 98]	0.0251	0.05
AACGAGUCAGGAUAUACAAAAAGUAAAUAAGUAAAACCAAAGUAGAAGGGACAUGAGGAUCACCCAUGUAAAUA [JR_Exc004_Sub019]	0.0428	0.0244
AACUGACAUGAGGAUCACCCAUGUCAGGAUAUGACAUCGAAAAAAAAAAAAAUCGUUGUCAGAAGGGACAUGGA [Design 74: Sub-opt R]	0.0209	0.0325
AACUGACAUGAGGAUCACCCAUGUCAGGAUAUGCUUCUAGGAAAAAAAAAAACUAGAUGCAGAAGGGAUAUGGA [Design 37 :P Sub-opt 13]	0.0145	0.0121
AAGAAACAUGAGGAUCACCCAUGUAAGGAUAUGAAAAAGAAAAGAAAAGAAAGAAGAAUCAGAAGGUACAAAGG [Nakhtnebtepnefer Intef III]	0.0241	0.0261
AAGAAACAUGAGGAUCACCCAUGUCAGGAUAUGCAGGACUGACGAAAGUCAGUCCAAAGCAGAAGGGACUAGAA [8-pair stack]	0.0299	0.0565
AAGAAACAUGAGGAUCACCCAUGUCAGGAUAUGUAAAAGAAAAGAAAAGAAAGAAGAAACAGAAGGGACAAAGG [Neferkaure]	0.0839	0.126
AAGAAAGCAGGAUAUACAUGAGGAUCACCCAUGUAAAAGAAAGAAAAGGGAAAGAAAAGUAGAAGGGCUAAGAA [User/Heqamaatre-setpenamun Ramesses IV]	0.0272	0.0741
AAGAAAGCAGGAUAUACAUGAGGAUCACCCAUGUAAAAGAAAGAGGGAAAAGAGAAAAGUAGAAGGGCUAAGAA [Cleopatra IV]	0.0373	0.0338
AAGAAAGGAGGAUAUACAUGAGGAUCACCCAUGUAAAAGAAAGAAGGGAAAGAGAAAAGUAGAAGGCCUAAGAA [Wahibre Psamtik I]	0.0327	0.031
AAGAAAGUAGGAUAUACAAGGAAGAAAGAAAAGAAAAGAAAACAUGAGGAUCACCCAUGUAGAAGGACUUAGAA [EteRNA is fun!]	0.0275	0.0187
AAGAACCAAGGAUAUACAUGAGGAUCACCCAUGUAAAAGAAAGAAAGGGAAAAGAAAAGUAGAAGGUGGAAGAA [Takelot I]	0.0281	0.0328
AAGAACGCAGGAUAUACAUGAAAGAAAGAAAAGAAAAGAAAACAUGAGGAUCACCCAUGUAGAAGGGCGAAGAA [EteRNA is fun!]	0.0379	0.0396
AAGAACUGAGGAUAUACAAAAGAAAAGAAAAGAAAGAAAGAACAUGAGGAUCACCCAUGUAGAAGGCGGAAGAA [Khahotepre Sobekhotep VI]	0.0315	0.0147
AAGAACUGAGGAUAUACAUAAUAAAAGAAAAGAAACAAAGAACAUGAGGAUCACCCAUGUAGAAGGCGGAAGAA [Menwadjre Sihathor]	0.0294	0.0207
AAGAAGACAGGAUAUACAUGAGGAUCACCCAUGUAAAAGAAAGAAAAGGGAAAGAAAAGUAGAAGGGUCAAGAA [Menkheperure Thutmose IV]	0.0396	0.0368
AAGAAGAGAGGAUAUACAUGAGGAUCACCCAUGUAAAAGAAAGAAGGGAAAGAGAAAAGUAGAAGGCUCAAGAA [Usermaatre-setpenamun Rudamun]	0.0256	0.031
AAGAAGAUAGGAUAUACAAAAUAAAAGAAAAGAAAGAAAGAACAUGAGGAUCACCCAUGUAGAAGGGUCAAGAA [Kheperkare Senusret I]	0.0546	0.0565

Sequence	apparent KD of MS2 coat protein (MS2 coat protein [1]) [µM]	apparent KD of MS2 coat protein (MS2 coat protein [2]) [µM]
AAGAAGAUAGGAUAUACAAGAAAGAAAGAAAAGAAAAGAAAACAUGAGGAUCACCCAUGUAGAAGGAUCUAGAA [EteRNA is fun!]	0.0308	0.0159
AAGAAGCUAGGAUAUACAUGAGGAUCACCCAUGUAAAAGAAAGAAGGGAAAGAGAAAAGUAGAAGGAGCAAGAA [Tefnakht]	0.0266	0.0344
AAGAAGGCAGGAUAUACAUGAGGAUCACCCAUGUAAAAGAAAGAAAAGGGAAAGAAAAGUAGAAGGGCCAAGAA [Kamose]	0.0354	0.0721
AAGAAGGUAGGAUAUGCUAAAGAAAUAAAAAUAAAUAAAGAACAUGAGGAUCACCCAUGUAGAAGGGCCAAGAA [Mer[...]re]	0.0473	0.0279
AAGAAGUCAGGAUAUACAUGAGGAUCACCCAUGUAAAAGAAAGAAAGGGAAAAGAAAAGUAGAAGGGACAAGAA [Usermaatre-akhenamun Ramesses VIII]	0.0182	0.0255
AAGAAGUCAGGAUAUACAUGAGGAUCACCCAUGUAAAAGAAAGAAGGGAAAGAGAAAAGUAGAAGGGACAAGAA [Usermaatre-setpenamun Takelot III]	0.0319	0.0199
AAGAAGUCAGGAUAUGCCAGAGAACAAGAAAGUGAAGAAUAGCAGAAGGGACAUGAGGAUCACCCAUGUAAAGA [Opal 11]	0.0469	0.0345
AAGAAGUCAGGAUAUGCCAGAGAUCACGAAAGUGACUAAGGGCAGAAGGGACAUGAGGAUCACCCAUGUAAAGA [Opal 5]	0.0634	0.0621
AAGAAGUGAGGAUAUCGAAGACUGUCGAAAAGACAGUCGAACGAGAAGGCACAUGAGGAUCACCCAUGUGAGAA [Marsurpial 65% 1]	0.031	0.0556
AAGAAGUGAGGAUAUGCAAAAGAAAAGAAAAGAAAAGAAAAGCAGAAGGCACAUGAGGAUCACCCAUGUAAGAA [Petubastis III]	0.0128	0.0289
AAGAAUCGAGGAUAUACAUGAGGAUCACCCAUGUAAAAGAAAGAAAGGGAAAAGAAAAGUAGAAGGCGAAAGAA [Usermaatre-setepenre Shoshenq III]	0.0234	0.0236
AAGAAUGGAGGAUAUACAUGAGGAUCACCCAUGUAAAAGAAAGAGGGAAAAGAGAAAAGUAGAAGGCCAAAGAA [Ptolemy VII Neos Philopator]	0.036	0.0344
AAGACUACAGGAUAUACAUGAGGAUCACCCAUGUAACUGACAAGUAGAGUACGGAGAAGUAGAAGGGUAGUCAA [Ruby 34]	0.0149	0.0176
AAGACUAGAGGAUAUACAUGAGGAUCACCCAUGUAACUGUCAGGAAACUGACGGAGAAGUAGAAGGCUAGUCAA [Mat - Exclusion 3 - JL mod - D85]	0.0161	0.0202
AAGGGACAUGAGGAUCACCCAUGUAAGGAUAUCGGAAAAGGAAAAAAAAAAAAUAAGACGAGAAGGUACAAAAA [Mat - Exclusion 1 - Eli mod - D80]	0.0702	0.0735
AAUGCGGCAGGAUAUACAUGAGGAUCACCCAUGUACAUCAGAUAUAUGGUCGAACCAUGUAGAAGGGCCGCAAA [Ex 3May 57]	0.0873	0.202
ACAGUUACAGGAUAUACAAGGGAAAAUAAAAAUAAACUUCAACAUGAGGAUCACCCAUGUAGAAGGGUAACUGA [Ex2 Design 199: Random 14]	0.0355	0.112
ACAUGACAUGAGGAUCACCCAUGUGAGGAUAUGCGAAAAAAAUUUUUAAAAAAAAUUGGCAGAAGGCACAAAAU [George Ritzer.]	0.0889	0.0991
ACAUGUACAGGAUAUACAUGGAAAAAAAAAAAAAAAAAACUACAUGAGGAUCACCCAUGUAGAAGGGUACAUGA [Ex2 Design 193: Random 12B]	0.0258	0.0257
ACCUUACAUGAGGAUCACCCAUGUUAGGAUAUCUCGCUUUCGCAAUCACAGCGCAAGCAGAGAAGGGACACGGG [Esceari]	0.0283	0.0666

Source: the supplement of paper PMC9170038
